According to the supplement of paper PMC10724198:
± gives the standard deviation of the averaged measurements.

Key:
Saccharomyces cerevisiae [1] = test: protein stability index of tFT-peptide fusion (C-terminal peptide) (PSI (0-1 scale)); higher = more stable (slower turnover)
Description: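 MPS profiling in S. cerevisiae of the tFT-X12 degron library: putative degron peptides plus stable controls, 12 aa, fused to the C-terminus of a sfGFP-mCherry timer. Cells are FACS-sorted into 8 mCherry/sfGFP bins and deep-sequenced. PSI runs from 0 (unstable) to 1 (stable). Backgrounds are wild type, das1Δ and doa10Δ at 30 °C, and wild type, das1Δ, cdc34-1 and cdc53-1 at 37 °C; 2-3 technical replicates each.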

Saccharomyces cerevisiae [2] = test: as above; conditions: genetic background: wild type; temperature: 30 C
[3] = genetic background: cdc34-1, temperature: 37 C
[4] = genetic background: cdc53-1, temperature: 37 C
[5] = genetic background: das1 deletion, temperature: 30 C
[6] = genetic background: das1 deletion, temperature: 37 C
[7] = genetic background: doa10 deletion, temperature: 30 C
[8] = genetic background: wild type, temperature: 30 C
[9] = genetic background: wild type, temperature: 37 C
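Also: PSI is a weighted mean of sequencing reads over stability bins, variants kept only with over 10 reads, mCherry proximal and sfGFP distal, peptide attached via GGGS linker.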

Sequence | protein stability index (Saccharomyces cerevisiae [1]; [3]) | protein stability index (Saccharomyces cerevisiae [1]; [4]) | protein stability index (Saccharomyces cerevisiae [1]; [5]) | protein stability index (Saccharomyces cerevisiae [1]; [6]) | protein stability index (Saccharomyces cerevisiae [1]; [7]) | protein stability index (Saccharomyces cerevisiae [1]; [8]) | protein stability index (Saccharomyces cerevisiae [1]; [9]) | protein stability index (Saccharomyces cerevisiae [2])
SWMSQFSILLTA | 0.0938 ± 0.037 | 0.122 ± 0.0092 | 0.188 ± 0.021 | 0.23 ± 0.0046 | 0.1535 ± 0.00097 | 0.167 ± 0.031 | 0.199 ± 0.04 | 0.285 ± 0.043
SYVLLQSYVSLV | 0.566 ± 0.017 | 0.623 ± 0.016 | 0.474 ± 0.0091 | 0.643 ± 0.016 | 0.318 ± 0.016 | 0.352 ± 0.029 | 0.613 ± 0.083 | 0.451 ± 0.021
TCVTLRYRLTFE | 0.638 ± 0.11 | 0.666 ± 0.027 | 0.564 ± 0.022 | 0.667 ± 0.043 | 0.585 ± 0.04 | 0.522 ± 0.025 | 0.621 ± 0.02 | 0.508 ± 0.11
TFLFPLPFLFFI | 0.0467 ± 0.0054 | 0.0387 ± 0.0025 | 0.102 ± 0.019 | 0.119 ± 0.03 | 0.29 ± 0.014 | 0.0685 ± 0.02 | 0.101 ± 0.0099 | 0.0963 ± 0.016
TFRPWPLHILAL | 0.195 ± 0.0033 | 0.219 ± 0.029 | 0.216 ± 0.038 | 0.325 ± 0.0089 | 0.15 ± 0.0036 | 0.166 ± 0.026 | 0.201 ± 0.019 | 0.257 ± 0.029
THRAVGIGLRCC | 0.558 ± 0.042 | 0.637 ± 0.02 | 0.496 ± 0.029 | 0.645 ± 0.0067 | 0.165 ± 0.01 | 0.186 ± 0.022 | 0.4005 ± 0.0016 | 0.358 ± 0.025
TIRKCIIKWIKI | 0.591 ± 0.032 | 0.581 ± 0.031 | 0.475 ± 0.021 | 0.596 ± 0.029 | 0.174 ± 0.0094 | 0.189 ± 0.036 | 0.398 ± 0.024 | 0.368 ± 0.016
TKDFVIKKTKIS | 0.537 ± 0.017 | 0.7393 ± 0.0047 | 0.641 ± 0.019 | 0.737 ± 0.022 | 0.135 ± 0.03 | 0.159 ± 0.03 | 0.236 ± 0.028 | 0.169 ± 0.021
TLDWKFGRGGIG | 0.315 ± 0.0073 | 0.4083 ± 0.0019 | 0.348 ± 0.017 | 0.406 ± 0.017 | 0.33 ± 0.0094 | 0.338 ± 0.01 | 0.4041 ± 0.0037 | 0.375 ± 0.0046
TVLGRDFALSVC | 0.455 ± 0.0056 | 0.4916 ± 0.004 | 0.361 ± 0.046 | 0.543 ± 0.015 | 0.308 ± 0.0071 | 0.346 ± 0.023 | 0.501 ± 0.0061 | 0.4599 ± 0.00056
TVYMVIRVIVWG | 0.129 ± 0.023 | 0.126 ± 0.046 | 0.141 ± 0.055 | 0.246 ± 0.0077 | 0.0909 ± 0.023 | 0.102 ± 0.032 | 0.154 ± 0.013 | 0.207 ± 0.027
TYCFRVCAWRAN | 0.603 ± 0.049 | 0.706 ± 0.021 | 0.583 ± 0.0094 | 0.677 ± 0.012 | 0.176 ± 0.0011 | 0.208 ± 0.026 | 0.396 ± 0.017 | 0.341 ± 0.016
VACLRLTVYVMG | 0.0455 ± 0.0053 | 0.0789 ± 0.015 | 0.128 ± 0.025 | 0.231 ± 0.0037 | 0.101 ± 0.009 | 0.124 ± 0.03 | 0.204 ± 0.016 | 0.193 ± 0.028
VASYVCIGVVWV | 0.4298 ± 0.0038 | 0.492 ± 0.061 | 0.301 ± 0.023 | 0.497 ± 0.025 | 0.262 ± 0.0045 | 0.299 ± 0.02 | 0.456 ± 0.01 | 0.351 ± 0.035
VCFLCIWLYSED | 0.268 ± 0.028 | 0.358 ± 0.013 | 0.227 ± 0.041 | 0.4305 ± 0.004 | 0.218 ± 0.017 | 0.221 ± 0.033 | 0.418 ± 0.056 | 0.344 ± 0.026
VCLFFFGYWCCL | 0.565 ± 0.066 | 0.555 ± 0.026 | 0.469 ± 0.015 | 0.566 ± 0.0067 | 0.493 ± 0.017 | 0.479 ± 0.0093 | 0.53 ± 0.011 | 0.501 ± 0.024
VCLFRLVVFFPV | 0.234 ± 0.039 | 0.335 ± 0.024 | 0.217 ± 0.021 | 0.426 ± 0.037 | 0.196 ± 0.02 | 0.222 ± 0.018 | 0.377 ± 0.014 | 0.349 ± 0.005
VCLLFRFCCWFW | 0.351 ± 0.024 | 0.357 ± 0.0081 | 0.305 ± 0.013 | 0.461 ± 0.02 | 0.331 ± 0.025 | 0.304 ± 0.01 | 0.414 ± 0.03 | 0.371 ± 0.017
VCTFLLVSFFLS | 0.223 ± 0.0027 | 0.315 ± 0.064 | 0.237 ± 0.028 | 0.423 ± 0.012 | 0.186 ± 0.019 | 0.185 ± 0.017 | 0.33 ± 0.0099 | 0.326 ± 0.017
